For one data set, the system named is syndapin-2. Briefly: Proximity ligation assay Aβ/syndapin-2 in BECs treated with Aβ assemblies. To be noted: Aβ assemblies at 100 nM for 15 min (Fig. 6C1). It counts as cell-based, mouse. As for the experimental part:
Polarized bEnd3 were washed twice with PBS, fixed in 4% (w/v) PFA in PBS for 15 min and permeabilized with 0.1% (w/v) Triton X-100 in PBS for 10 min. PLA was carried out by using Duolink probes and detection reagents according to the supplier’s instructions. Briefly, monolayers were incubated with Duolink blocking solution for 1 h at 37°C and then incubated with the two antibodies targeting each protein of interest overnight at 4°C. Subsequently, cells were incubated with Duolink PLA probes (anti-rabbit and anti-mouse) for 1 h at 37°C, washed and incubated with Duolink ligase and polymerase enzymes for 30 and 100 min, respectively. As a negative control, PLA protocol was followed with the exception of the addition of the primary antibodies to determine the specificity of the PLA probes. […] Images were acquired using a Leica TCS SP8 confocal microscope, via sequential scan to reduce fluorophore bleed-through, with a 63× oil immersion objective. z-stacks (10–20 stacks per sample) were collected (20 optical sections) and fluorescence intensity of the PLA signal was quantified using ImageJ. […]
Cell metabolic activity of BECs was assessed by using the RealTime-Glo™ MT Cell Viability Assay. […] To evaluate the effect of Aβ assemblies in the expression of LRP1, cells were treated for 2 h with Aβ at 10 µM and then, cells were collected and analysed by Western blotting, as described above.

For another data set, the target named is T1, LRP1 (Mus musculus, UniProt Q91ZX7).
T1 construct: endogenous in cells; host or cells: bEnd3 (ATCC CRL-2299)
Briefly: LRP1 expression in BECs treated with Aβ assemblies (Western blot). The data set is classed as cell-based. The following applies: 100 nM for 2 h, normalised to GAPDH and untreated cells, n = 3. As for the experimental part:
Polarized bEnd3 were washed twice with PBS and RIPA buffer containing protease inhibitors (1:50) was added directly to the transwell membranes and left on ice for 1 h. Cells were collected, centrifuged and the supernatant was collected for Western blot analysis. WT, KO and APP-PS1 mice were anaesthetized, decapitated and the brains were carefully collected from the skull. Brains were homogenized in a 4-fold excess volume of ice-cold buffer solution: 10 mM HEPES, 141 mM NaCl, 4 mM KCl, 2.8 mM CaCl2, 1 mM MgSO4, 1 mM NaH2PO4 and 10 mM glucose (pH 7.4) in a glass homogenizer (10–15 strokes). Microvessels and capillary-depleted fractions were prepared from WT, KO and APP-PS1 mice brains, as previously described.[28] Homogenate was suspended in an equal volume of 26% (w/v) dextran (64–76 kDa), mixed and centrifuged at 15 800 g for 10 min at 4°C. Pellet containing the brain microvessels was carefully separated from the supernatant containing capillary-depleted brain (parenchyma). Both fractions, microvessels and parenchyma, were washed twice in ice-cold buffered solution by centrifugation at 15 800 g for 10 min. Brain microvessels and parenchyma fractions were resuspended in RIPA lysis buffer containing protease inhibitors, centrifuged for 20 min, and the supernatant used for Western blot analysis. Protein levels in the lysates were determined using a BCA Protein Assay Kit. Lysates were mixed with Laemmli sample buffer, and proteins (25 µg) were separated on 10% SDS polyacrylamide gels and transferred to polyvinylidene difluoride (PVDF) membranes. All membranes were blocked with 5% (w/v) non-fat milk in Tris-buffered saline (TBS) containing 0.1% (w/v) Tween-20 (TBS-T) for 1 h and then incubated at 4°C with the primary antibody overnight. After washing with TBS-T three times for 5 min, membranes were incubated with the corresponding secondary antibody for 1 h at room temperature, washed with TBS-T and imaged using an Odyssey CLx (LI-COR Biosciences). […]
Cell metabolic activity of BECs was assessed by using the RealTime-Glo™ MT Cell Viability Assay. […]

Another data set has as its target T2, LRP1/Rab5 (Mus musculus, UniProt Q91ZX7).
T2 construct: endogenous in cells; host or cells: bEnd3 (ATCC CRL-2299)
Briefly: Proximity ligation assay LRP1/Rab5 in BECs treated with Aβ assemblies. To be noted: Aβ assemblies at 100 nM for 15 min (Fig. 6B2). It counts as cell-based. On the procedure: Polarized bEnd3 were washed twice with PBS, fixed in 4% (w/v) PFA in PBS for 15 min and permeabilized with 0.1% (w/v) Triton X-100 in PBS for 10 min. PLA was carried out by using Duolink probes and detection reagents according to the supplier’s instructions. Briefly, monolayers were incubated with Duolink blocking solution for 1 h at 37°C and then incubated with the two antibodies targeting each protein of interest overnight at 4°C. Subsequently, cells were incubated with Duolink PLA probes (anti-rabbit and anti-mouse) for 1 h at 37°C, washed and incubated with Duolink ligase and polymerase enzymes for 30 and 100 min, respectively. As a negative control, PLA protocol was followed with the exception of the addition of the primary antibodies to determine the specificity of the PLA probes. Nuclei were counterstained by incubation with DAPI for 10 min. Membranes were mounted in glass coverslips using Vectashield Mounting Media. Images were acquired using a Leica TCS SP8 confocal microscope, via sequential scan to reduce fluorophore bleed-through, with a 63× oil immersion objective. z-stacks (10–20 stacks per sample) were collected (20 optical sections) and fluorescence intensity of the PLA signal was quantified using ImageJ. The abundance of PLA signal was normalized by the number of nuclei in each z-stack image. List of antibodies in Supplementary material.
Cell metabolic activity of BECs was assessed by using the RealTime-Glo™ MT Cell Viability Assay. Cells were seeded in 96-well plates at a density of 10 000 cells per well and incubated with Aβ assemblies at concentrations ranging 0.001–1 µM for 1 and 24 h. RealTime-Glo™ MT Assay was carried out according to the supplier’s instructions. […] To evaluate the effect of Aβ assemblies in the expression of LRP1, cells were treated for 2 h with Aβ at 10 µM and then, cells were collected and analysed by Western blotting, as described above.

The target of the next data set is T3, LRP1/syndapin-2 (Mus musculus, UniProt Q91ZX7).
T3 construct: endogenous in cells; host or cells: bEnd3 (ATCC CRL-2299), polarized
Briefly: Proximity ligation assay LRP1/syndapin-2 in BECs treated with Aβ. The data set is classed as cell-based. To be noted: Aβ assemblies at 100 nM for 15 min (Fig. 6B1).

Data set [1] is described as follows: Thioflavin T (ThT) fluorescence assay of Aβ assemblies. It counts as physicochemical. To be noted: Aβ preparation 10 µM in PBS with ThT 50 µM, 37°C, 450/485 nm; n = 3. On the procedure:
Aβ assemblies were prepared according to previously described protocols.[48],[49] Briefly, Aβ (1–40) peptide was dissolved in hexafluoro-2-propanol at 1 mM, vortexed and bath sonicated to obtain a homogenous solution, and aliquoted to microcentrifuge tubes. HIPF was removed by overnight evaporation and, once all solvent was removed, Aβ (1–40) films were stored at −80°C until further processed. Peptide films were then resuspended in dimethyl sulfoxide (DMSO) to 5 mM, bath sonicated for 10 min and vortexed for 30 s. […] Immediately before use, the oligomeric solutions were centrifuged at 14 000 g for 10 min at 4°C (to remove any fibrils that might be present), and the supernatant was diluted to the final experimental concentration. […] Monomeric Aβ was obtained by dissolving the peptide directly in DMSO at 1 mM. […] Aβ assemblies were characterized by measuring ThT fluorescence and transmission electron microscopy (TEM). […] Briefly, each Aβ preparation (20 µl, 10 µM) was incubated with ThT solution (80 µl, 50 µM) at 37°C and then the fluorescence of ThT was measured at 450/485 nm in a 96-well plate using a Spark Multimode microplate reader (Tecan). […] Images were recorded using a direct detection camera K2 IS from Gatan working in counted mode to allow for the sensitive Aβ structures to be imaged at low electron doses without beam damage. […]

Data set [2] can be described thus: Transmission electron microscopy of Aβ assemblies. It counts as physicochemical. The following applies: negative staining, ∼0.5 mg ml^−1 dispersion. As for the experimental part:
Peptide films were then resuspended in dimethyl sulfoxide (DMSO) to 5 mM, bath sonicated for 10 min and vortexed for 30 s. […] Immediately before use, the oligomeric solutions were centrifuged at 14 000 g for 10 min at 4°C (to remove any fibrils that might be present), and the supernatant was diluted to the final experimental concentration. […] TEM imaging was performed using a JOEL JEM-2200FS microscope equipped with a field emission gun at 200 kV, and an in-column Omega filter. TEM microscope was used in energy-filtered mode with the slit inserted to increase image contrast by collecting only elastically scattered electrons. Digital Micrograph™ software (version 3.20) was used for image acquisition and processing. […] For sample preparation, 400 mesh copper grids were glow-discharged for 40 s to render them hydrophilic. […] The grid was blotted with filter paper and immersed in Uranyless staining solution for 40 s for negative staining. The grid was blotted again and dried under vacuum for 1 min.

T1 sequence (Q91ZX7 20-4545): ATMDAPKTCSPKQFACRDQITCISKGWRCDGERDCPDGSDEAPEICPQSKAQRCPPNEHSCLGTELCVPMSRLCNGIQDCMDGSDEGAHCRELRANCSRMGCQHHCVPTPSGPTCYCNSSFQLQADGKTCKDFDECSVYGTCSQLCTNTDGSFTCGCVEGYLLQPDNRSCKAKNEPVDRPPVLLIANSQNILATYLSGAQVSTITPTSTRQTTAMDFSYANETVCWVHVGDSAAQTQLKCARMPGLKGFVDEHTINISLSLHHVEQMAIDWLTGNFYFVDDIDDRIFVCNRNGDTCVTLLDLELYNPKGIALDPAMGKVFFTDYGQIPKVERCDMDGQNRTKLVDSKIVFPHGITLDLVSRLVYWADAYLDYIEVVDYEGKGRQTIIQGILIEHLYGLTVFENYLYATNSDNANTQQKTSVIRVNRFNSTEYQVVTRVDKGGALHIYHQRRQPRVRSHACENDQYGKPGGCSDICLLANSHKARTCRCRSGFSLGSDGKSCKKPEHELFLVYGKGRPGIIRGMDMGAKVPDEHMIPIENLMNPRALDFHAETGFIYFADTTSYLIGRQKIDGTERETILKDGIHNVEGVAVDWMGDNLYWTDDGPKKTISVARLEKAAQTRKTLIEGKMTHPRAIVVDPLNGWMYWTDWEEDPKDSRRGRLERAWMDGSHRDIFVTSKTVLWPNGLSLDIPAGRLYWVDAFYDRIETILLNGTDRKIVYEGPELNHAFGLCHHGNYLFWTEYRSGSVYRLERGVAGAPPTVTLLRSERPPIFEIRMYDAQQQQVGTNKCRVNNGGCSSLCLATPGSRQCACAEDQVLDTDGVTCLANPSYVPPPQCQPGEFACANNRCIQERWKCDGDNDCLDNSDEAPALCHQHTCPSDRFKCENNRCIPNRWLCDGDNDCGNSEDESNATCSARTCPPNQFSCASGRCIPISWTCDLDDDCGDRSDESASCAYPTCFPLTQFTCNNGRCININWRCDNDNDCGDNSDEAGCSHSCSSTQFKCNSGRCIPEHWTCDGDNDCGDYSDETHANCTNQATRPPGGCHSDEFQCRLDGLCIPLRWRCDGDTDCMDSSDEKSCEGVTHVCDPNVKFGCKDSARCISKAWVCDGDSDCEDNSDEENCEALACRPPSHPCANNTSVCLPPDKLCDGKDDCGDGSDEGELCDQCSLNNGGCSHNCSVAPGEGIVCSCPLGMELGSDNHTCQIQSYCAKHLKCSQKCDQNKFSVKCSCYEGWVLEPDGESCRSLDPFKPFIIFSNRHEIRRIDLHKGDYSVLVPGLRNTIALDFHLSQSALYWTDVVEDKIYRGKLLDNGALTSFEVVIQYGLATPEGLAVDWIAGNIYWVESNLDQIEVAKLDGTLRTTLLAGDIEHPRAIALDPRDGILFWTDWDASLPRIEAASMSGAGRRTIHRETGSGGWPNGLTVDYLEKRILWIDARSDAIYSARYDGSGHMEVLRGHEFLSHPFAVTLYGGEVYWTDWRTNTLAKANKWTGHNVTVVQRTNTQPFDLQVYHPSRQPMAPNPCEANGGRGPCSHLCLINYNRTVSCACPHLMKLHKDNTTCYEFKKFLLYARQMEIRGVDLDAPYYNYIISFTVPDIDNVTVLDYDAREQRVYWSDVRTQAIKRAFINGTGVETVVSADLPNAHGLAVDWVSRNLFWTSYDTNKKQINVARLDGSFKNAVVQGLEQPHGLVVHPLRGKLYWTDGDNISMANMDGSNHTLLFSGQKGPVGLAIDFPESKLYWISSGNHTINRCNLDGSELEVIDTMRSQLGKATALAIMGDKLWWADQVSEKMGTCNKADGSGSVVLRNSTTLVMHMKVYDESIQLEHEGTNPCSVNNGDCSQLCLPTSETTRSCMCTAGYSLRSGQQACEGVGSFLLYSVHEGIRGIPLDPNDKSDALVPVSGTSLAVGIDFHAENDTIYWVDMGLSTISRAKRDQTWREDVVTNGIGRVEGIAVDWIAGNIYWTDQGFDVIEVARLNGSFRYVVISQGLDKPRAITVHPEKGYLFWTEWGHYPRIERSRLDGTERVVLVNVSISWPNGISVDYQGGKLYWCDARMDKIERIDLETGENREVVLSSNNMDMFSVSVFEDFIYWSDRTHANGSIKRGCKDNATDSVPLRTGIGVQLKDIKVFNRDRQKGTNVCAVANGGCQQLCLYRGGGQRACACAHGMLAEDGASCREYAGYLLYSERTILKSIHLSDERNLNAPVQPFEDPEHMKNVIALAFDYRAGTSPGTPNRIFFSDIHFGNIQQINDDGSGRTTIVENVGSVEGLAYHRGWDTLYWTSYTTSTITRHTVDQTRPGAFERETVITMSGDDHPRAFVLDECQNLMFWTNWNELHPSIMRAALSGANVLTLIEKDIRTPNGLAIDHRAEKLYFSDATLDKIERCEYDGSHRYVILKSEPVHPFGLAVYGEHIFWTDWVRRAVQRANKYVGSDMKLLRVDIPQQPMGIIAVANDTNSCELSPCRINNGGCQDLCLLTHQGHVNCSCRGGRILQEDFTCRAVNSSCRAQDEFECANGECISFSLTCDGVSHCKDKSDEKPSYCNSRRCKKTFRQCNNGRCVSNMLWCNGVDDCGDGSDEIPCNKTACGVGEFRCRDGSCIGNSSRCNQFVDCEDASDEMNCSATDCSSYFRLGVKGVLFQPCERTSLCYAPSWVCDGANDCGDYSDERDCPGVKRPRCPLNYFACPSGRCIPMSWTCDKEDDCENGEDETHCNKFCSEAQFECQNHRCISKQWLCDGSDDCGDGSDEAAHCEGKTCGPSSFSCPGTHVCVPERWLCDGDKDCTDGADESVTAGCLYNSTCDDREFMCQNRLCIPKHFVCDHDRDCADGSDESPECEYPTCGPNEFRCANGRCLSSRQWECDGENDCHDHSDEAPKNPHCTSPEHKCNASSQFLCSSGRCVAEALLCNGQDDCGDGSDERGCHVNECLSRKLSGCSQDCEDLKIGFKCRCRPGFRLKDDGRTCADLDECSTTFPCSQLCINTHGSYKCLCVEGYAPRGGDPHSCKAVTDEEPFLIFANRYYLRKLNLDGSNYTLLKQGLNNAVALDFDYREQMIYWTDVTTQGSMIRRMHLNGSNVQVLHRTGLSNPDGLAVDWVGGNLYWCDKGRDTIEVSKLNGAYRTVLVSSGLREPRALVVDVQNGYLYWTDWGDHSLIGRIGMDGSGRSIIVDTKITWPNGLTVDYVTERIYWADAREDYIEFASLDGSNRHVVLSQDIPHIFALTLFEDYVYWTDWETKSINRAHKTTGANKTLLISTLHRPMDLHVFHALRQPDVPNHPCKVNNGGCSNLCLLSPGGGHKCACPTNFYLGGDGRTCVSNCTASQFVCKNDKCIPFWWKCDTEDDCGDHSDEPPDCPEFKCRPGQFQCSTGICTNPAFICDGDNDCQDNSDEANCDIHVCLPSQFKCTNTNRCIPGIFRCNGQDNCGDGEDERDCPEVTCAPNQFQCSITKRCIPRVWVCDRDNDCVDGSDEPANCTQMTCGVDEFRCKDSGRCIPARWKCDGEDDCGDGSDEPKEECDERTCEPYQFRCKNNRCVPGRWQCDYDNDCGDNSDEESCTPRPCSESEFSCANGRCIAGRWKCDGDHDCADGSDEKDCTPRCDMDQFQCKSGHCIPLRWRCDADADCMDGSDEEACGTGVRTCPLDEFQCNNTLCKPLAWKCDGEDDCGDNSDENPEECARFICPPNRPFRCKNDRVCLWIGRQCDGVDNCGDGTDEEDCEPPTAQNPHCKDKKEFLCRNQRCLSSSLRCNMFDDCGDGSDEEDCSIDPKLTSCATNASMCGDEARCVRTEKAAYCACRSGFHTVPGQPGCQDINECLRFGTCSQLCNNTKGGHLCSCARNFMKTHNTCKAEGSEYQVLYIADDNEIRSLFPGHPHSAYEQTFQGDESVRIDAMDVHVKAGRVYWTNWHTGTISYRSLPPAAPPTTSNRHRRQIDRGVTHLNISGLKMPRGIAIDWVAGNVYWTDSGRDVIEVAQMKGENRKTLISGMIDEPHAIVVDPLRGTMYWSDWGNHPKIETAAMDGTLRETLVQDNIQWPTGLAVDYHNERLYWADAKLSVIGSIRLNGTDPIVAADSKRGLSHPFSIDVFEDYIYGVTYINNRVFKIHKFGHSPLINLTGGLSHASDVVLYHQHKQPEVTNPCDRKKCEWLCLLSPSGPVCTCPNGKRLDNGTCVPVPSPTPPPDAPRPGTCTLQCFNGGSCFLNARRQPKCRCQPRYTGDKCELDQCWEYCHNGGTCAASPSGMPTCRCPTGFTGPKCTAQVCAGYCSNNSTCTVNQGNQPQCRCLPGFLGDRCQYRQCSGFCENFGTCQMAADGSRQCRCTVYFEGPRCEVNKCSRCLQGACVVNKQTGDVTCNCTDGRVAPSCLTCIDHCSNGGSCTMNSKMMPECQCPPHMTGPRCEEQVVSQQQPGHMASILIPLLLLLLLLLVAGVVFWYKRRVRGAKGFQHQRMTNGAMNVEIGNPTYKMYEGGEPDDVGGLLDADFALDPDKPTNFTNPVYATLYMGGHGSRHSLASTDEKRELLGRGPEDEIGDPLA

As to “Aβ oligomers: Aβ (1–40) oligomers formed in PBS at 4°C for 24 h, supernatant after centrifugation”, in the data set with syndapin-2, the “Association of Aβ with syndapin-2 (PLA)” value is reported as “more associated with syndapin-2”. In addition, the LRP1 expression result with LRP1 is “unaltered”. The “LRP1/Rab5 association (PLA)” value in the data set with LRP1/Rab5 was “decrease”. Also, in the data set with LRP1/syndapin-2, the “LRP1/syndapin-2 interaction (PLA), comparison among assemblies” value is “highest increase”.

Take “Aβ fibrils: Aβ (1–40) fibrils prepared in cold 10 mM HCl, incubated at 37°C for 24 h”: the “ThT fluorescence intensity (fibril structure)” value in data set [1] is “characteristic increase in the fluorescence intensity of ThT”. Besides, the “Reduction in the expression levels of LRP1” value with LRP1 stood at 2 fold. The “LRP1/Rab5 association (PLA)” value with LRP1/Rab5 is “favour LRP1/Rab5 association”. Moreover, in data set [2], the “Thickness of fibrils (TEM)” value was approximately 10 nm.

On to “Aβ monomers: Monomeric Aβ obtained by dissolving the Aβ (1–40) peptide directly in DMSO at 1 mM”, for which the LRP1 expression entry with LRP1 was “unaltered”. In the data set with LRP1/Rab5, the “LRP1/Rab5 association (PLA)” value is “favour LRP1/Rab5 association”. Besides, the “Morphology (TEM)” value in data set [2] is “small assemblies and agglomerates”.

(Values after article PMC8882007, “Syndapin-2 mediated transcytosis of amyloid-β across the blood–brain barrier” (Brain Communications, 2022).)
